Data reported in US20240424127A1 (BRIGHT PEAK THERAPEUTICS, published 2024).
Like-named read-outs stand apart in the source and are kept apart here. Bridges are numbered along the chain shown (N, C = ends). [ ]: non-standard residue; d: D form. glutaryl‑PEG9‑azide = glutaryl-PEG9-azide group on the N-terminal amine; L6P = lysine side chain carrying PEG6-NH2 (diglycolyl-PEG-amine); hSer = N[C@@H](CCO)C(=O)O; Nle = CCCC[C@H](N)C(=O)O

T1: Recombinant Human IL-7R alpha/CD127 Fc Avi-tag Protein, CF (R&D Systems #AVI10317-050) (human, UniProt P16871 21-239)
T1 construct: Bought construct; It was loaded on streptavidin (SAX/SAX2) biosensors; not shown: Fc and Avi-tag of a bought protein
T1 sequence (looked up): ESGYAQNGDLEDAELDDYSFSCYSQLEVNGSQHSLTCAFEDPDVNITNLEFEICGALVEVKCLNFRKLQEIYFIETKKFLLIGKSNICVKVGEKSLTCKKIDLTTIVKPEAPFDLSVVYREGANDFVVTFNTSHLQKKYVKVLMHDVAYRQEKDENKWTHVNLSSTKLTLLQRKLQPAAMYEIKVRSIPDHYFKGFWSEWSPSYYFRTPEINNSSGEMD

T2: IL-7 receptor (IL-7Rα/γc heterodimer) on primary human T cells (human, UniProt P16871 21-459; P31785 23-369)
T2 sequence (looked up) 1: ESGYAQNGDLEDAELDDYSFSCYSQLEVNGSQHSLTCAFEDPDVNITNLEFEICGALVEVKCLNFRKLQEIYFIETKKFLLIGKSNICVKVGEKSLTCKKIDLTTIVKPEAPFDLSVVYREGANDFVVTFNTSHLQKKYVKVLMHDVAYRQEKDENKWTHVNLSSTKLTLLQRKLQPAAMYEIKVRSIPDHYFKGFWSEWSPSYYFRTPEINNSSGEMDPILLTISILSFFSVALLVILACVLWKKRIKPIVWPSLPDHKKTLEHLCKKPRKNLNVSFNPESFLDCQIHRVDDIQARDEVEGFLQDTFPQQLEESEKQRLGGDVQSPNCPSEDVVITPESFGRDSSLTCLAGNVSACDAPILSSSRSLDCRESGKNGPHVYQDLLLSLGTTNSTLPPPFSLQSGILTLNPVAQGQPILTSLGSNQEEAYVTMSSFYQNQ
T2 sequence (looked up) 2: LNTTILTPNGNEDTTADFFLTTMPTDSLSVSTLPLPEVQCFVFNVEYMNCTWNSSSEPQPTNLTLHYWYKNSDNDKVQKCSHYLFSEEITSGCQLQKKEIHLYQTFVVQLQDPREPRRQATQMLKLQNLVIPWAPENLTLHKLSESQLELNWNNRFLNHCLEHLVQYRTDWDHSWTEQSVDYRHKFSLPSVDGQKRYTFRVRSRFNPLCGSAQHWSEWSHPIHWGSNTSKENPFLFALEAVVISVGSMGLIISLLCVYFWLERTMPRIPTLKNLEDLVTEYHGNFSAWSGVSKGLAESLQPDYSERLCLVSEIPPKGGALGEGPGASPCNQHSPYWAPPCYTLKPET

B1: CMP-111, synthetic IL-7 K81(L6P), G85N of SEQ ID NO: 8 with glutaryl-PEG9-azide at the N-terminus (ligand)
chain: {glutaryl‑PEG9‑azide}-DCDIEGKDGKQYESVL[Nle]VSIDQLLDS[Nle]KEIGSNCL[hSer]NEFNFFKRHICDANKEG[Nle]FLFRAARKLRQFLK[Nle]NSTGDF[hSer]LHLLK(L6P)VSENTTILLNCTGQVKGRKPAALGEAQPTKSL[hSer]ENKSLKEQKKLNDLCFLKRLLQEIKTCWNKIL[Nle]GTKEH-NH2
modifications: disulfide 34-129, 47-141, 2-92
B2: CMP-202, synthetic IL-7 variant of Example 2W (ligand)
chain: {glutaryl‑PEG9‑azide}-DSDIEGKDGKQYESVL[Nle]VSIDQLLDS[Nle]KEIGSNCL[hSer]NEFNFFKRHICDANKEG[Nle]FLFRAARKLRQFLK[Nle]NSTGDF[hSer]LHLLK(L6P)VSENTTILLNSTGQVKGRKPAALGEAQPTKSL[hSer]ENKSLKEQKKLNDLCFLKRLLQEIKTCWNKIL[Nle]GTKEH-NH2
modifications: disulfide 34-129, 47-141
B3: CMP-108, synthetic IL-7 of SEQ ID NO: 3 with glutaryl-PEG9-azide at the N-terminus (ligand)
chain: {glutaryl‑PEG9‑azide}-DCDIEGKDGKQYESVL[Nle]VSIDQLLDS[Nle]KEIGSNCL[hSer]NEFNFFKRHICDANKEG[Nle]FLFRAARKLRQFLK[Nle]NSTGDF[hSer]LHLLKVSEGTTILLNCTGQVKGRKPAALGEAQPTKSL[hSer]ENKSLKEQKKLNDLCFLKRLLQEIKTCWNKIL[Nle]GTKEH-NH2
modifications: disulfide 34-129, 47-141, 2-92
notes: The suffix is not explained; also called synthetic IL-7, WT with an N-terminal conjugation handle
B4: CMP-110, synthetic IL-7 G85N of SEQ ID NO: 7 with glutaryl-PEG9-azide at the N-terminus (ligand)
chain: {glutaryl‑PEG9‑azide}-DCDIEGKDGKQYESVL[Nle]VSIDQLLDS[Nle]KEIGSNCL[hSer]NEFNFFKRHICDANKEG[Nle]FLFRAARKLRQFLK[Nle]NSTGDF[hSer]LHLLKVSENTTILLNCTGQVKGRKPAALGEAQPTKSL[hSer]ENKSLKEQKKLNDLCFLKRLLQEIKTCWNKIL[Nle]GTKEH-NH2
modifications: disulfide 34-129, 47-141, 2-92
notes: The suffix is not explained; also called CMP-110-001
B5: CMP-200, IL-7 syntein missing C2-C92 disulphide bond, N-terminus with glutaric acid and azido-PEG (ligand)
chain: {glutaryl‑PEG9‑azide}-DSDIEGKDGKQYESVL[Nle]VSIDQLLDS[Nle]KEIGSNCL[hSer]NEFNFFKRHICDANKEG[Nle]FLFRAARKLRQFLK[Nle]NSTGDF[hSer]LHLLKVSEGTTILLNSTGQVKGRKPAALGEAQPTKSL[hSer]ENKSLKEQKKLNDLCFLKRLLQEIKTCWNKIL[Nle]GTKEH-NH2
modifications: disulfide 34-129, 47-141
notes: also called CMP-200-001
B6: CMP-201, synthetic IL-7 variant of Example 2V (ligand)
chain: {glutaryl‑PEG9‑azide}-DSDIEGKDGKQYESVL[Nle]VSIDQLLDS[Nle]KEIGSNCL[hSer]NEFNFFKRHICDANKEG[Nle]FLFRAARKLRQFLK[Nle]NSTGDF[hSer]LHLLKVSENTTILLNSTGQVKGRKPAALGEAQPTKSL[hSer]ENKSLKEQKKLNDLCFLKRLLQEIKTCWNKIL[Nle]GTKEH-NH2
modifications: disulfide 34-129, 47-141
B7: CMP-106, recombinant IL-7 V15W with His-tag (ligand)
chain: DCDIEGKDGKQYESWLMVSIDQLLDSMKEIGSNCLNNEFNFFKRHICDANKEGMFLFRAARKLRQFLKMNSTGDFDLHLLKVSEGTTILLNCTGQVKGRKPAALGEAQPTKSLEENKSLKEQKKLNDLCFLKRLLQEIKTCWNKILMGTKEHVDHHHHHH
notes: V15W is already in the entry, which also includes the C-terminal His-tag; also called IL-7 V15W (Recomb-HIS6)
B8: CMP-116, LZM-009 conjugated to synthetic IL-7 (V15W) CMP-107, DAR 1, at K248 (other)
VH: QVQLVQSGAEVKKPGASVKVSCKASGYTFTSYYMYWVRQAPGQGLEWMGGVNPSNGGTNFNEKFKSRVTITADKSTSTAYMELSSLRSEDTAVYYCARRDYRYDMGFDYWGQGTTVTVSS
VL: EIVLTQSPATLSLSPGERATISCRASKGVSTSGYSYLHWYQQKPGQAPRLLIYLASYLESGVPARFSGSGSGTDFTLTISSLEPEDFATYYCQHSRELPLTFGTGTKVEIK
chain: DCDIEGKDGKQYESWLXVSIDQLLDSXKEIGSNCLXNEFNFFKRHICDANKEGXFLFRAARKLRQFLKXNSTGDFXLHLLKVSEGTTILLNCTGQVKGRKPAALGEAQPTKSLXENKSLKEQKKLNDLCFLKRLLQEIKTCWNKILXGTKEH
modifications: not fully specified; norleucine (Nle) at 17, 27, 54, 69, 147; homoserine (Hse) at 36, 76, 114; N-terminal glutaryl-PEG9-azide reacted with the DBCO linker on the antibody; K248 (EU numbering) of the Fc region carries the linker to IL-7 (DAR 1)
notes: Immunocytokine (chemical conjugate)

Legend:
[1] = molecular target: T1, Recombinant Human IL-7R alpha/CD127 Fc …; experiment: BLI (Octet R8); CD127-Fc-Avi loaded on SAX2 sensor, IL-7 polypeptide as analyte
[2] = molecular target: T2, IL-7 receptor (IL-7Rα/γc heterodimer) …; experiment: cell-based or functional assay
[3] = molecular target: T1, Recombinant Human IL-7R alpha/CD127 Fc …; experiment: BLI (Octet R8); CD127-Fc-Avi loaded on SAX2 sensor, IL-7 polypeptide as analyte; remark: listed apart in the source
[4] = molecular target: T1, Recombinant Human IL-7R alpha/CD127 Fc …; experiment: as above; remark: listed apart in the source
[5] = molecular target: T1, Recombinant Human IL-7R alpha/CD127 Fc …; experiment: as above; remark: listed apart in the source
[6] = molecular target: T1, Recombinant Human IL-7R alpha/CD127 Fc …; experiment: as above; remark: listed apart in the source
[7] = molecular target: T1, Recombinant Human IL-7R alpha/CD127 Fc …; experiment: as above; remark: listed apart in the source
[8] = molecular target: T1, Recombinant Human IL-7R alpha/CD127 Fc …; experiment: as above; remark: listed apart in the source
[9] = molecular target: T1, Recombinant Human IL-7R alpha/CD127 Fc …; experiment: as above; remark: listed apart in the source
[10] = molecular target: T1, Recombinant Human IL-7R alpha/CD127 Fc …; experiment: as above; remark: listed apart in the source
[11] = molecular target: T1, Recombinant Human IL-7R alpha/CD127 Fc …; experiment: BLI (Octet R8); CD127-Fc-Avi loaded on SAX2 sensor, immunocytokine as analyte
[12] = molecular target: T3, Biotinylated Recombinant Human PD-1 (CD279)-Fc Chimera (carrier-free), Biolegend #789406 (human, UniProt Q15116 25-167, biotinylated); experiment: Direct huPD1 ELISA: immunocytokine coated on the plate, serial dilution of biotinylated human PD-1-Fc (x axis 'Biotin PD1 (nM)'), signal at 450 nm
T3 construct: Bought PD-1-Fc; also called h-PD1 Fc; not shown: Fc part of a bought chimera
T3 sequence (Q15116 25-167, change not shown): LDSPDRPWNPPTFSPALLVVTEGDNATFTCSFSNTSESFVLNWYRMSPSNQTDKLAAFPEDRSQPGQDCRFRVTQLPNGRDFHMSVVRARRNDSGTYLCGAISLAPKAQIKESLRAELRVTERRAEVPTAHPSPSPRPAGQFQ

| Binder | EC50 pSTAT5, CD4 Memory [2] [nM] | EC50 pSTAT5, CD4 Naive [2] [nM] | EC50 pSTAT5, CD4 Treg [2] [nM] | EC50 pSTAT5, CD8 Memory [2] [nM] | EC50 pSTAT5, CD8 Naive [2] [nM] | other results |
| --- | --- | --- | --- | --- | --- | --- |
| B1 | 11.2 | 11.6 | 82.3 | 16.2 | 12.3 | koff [1]: 0.0353 s⁻¹; kon [1]: 1.41e+06 M⁻¹ s⁻¹; Kd [3]: 16.5 nM; koff [3]: 0.0318 s⁻¹; kon [3]: 1.92e+06 M⁻¹ s⁻¹ |
| B2 | 38.1 | 18.9 | 32.7 | 37.4 | 20.4 | Kd [4]: 25.4 nM; koff [4]: 0.00997 s⁻¹; kon [4]: 393000 M⁻¹ s⁻¹ |
| B3 | 0.006 | 0.006 | 0.02 | 0.008 | 0.008 | Kd [1]: 2.75 nM; koff [1]: 0.00901 s⁻¹; kon [1]: 3.28e+06 M⁻¹ s⁻¹; Kd [5]: 0.254 nM; koff [5]: 0.00167 s⁻¹; kon [5]: 6.59e+06 M⁻¹ s⁻¹ |
| B4 | 0.03 | 0.03 | 67 | 0.08 | 0.05 | koff [6]: 0.0225 s⁻¹; kon [6]: 2.51e+06 M⁻¹ s⁻¹; Kd [7]: 9.47 nM; koff [7]: 0.0269 s⁻¹; kon [7]: 2.84e+06 M⁻¹ s⁻¹ |
| B5 | 0.03 | 0.02 | 0.14 | 0.04 | 0.03 | Kd [8]: 7.18 nM; koff [8]: 0.00879 s⁻¹; kon [8]: 1.22e+06 M⁻¹ s⁻¹ |
| B6 | 0.7 | 0.8 | 4.45 | 1.7 | 1.2 | Kd [9]: 19.2 nM; koff [9]: 0.00996 s⁻¹; kon [9]: 518000 M⁻¹ s⁻¹ |
| B7 | 0.93 | 0.814 | 27.7 | 3.22 | 1.28 | Kd [10]: 66.3 nM; koff [10]: 0.0321 s⁻¹; kon [10]: 485000 M⁻¹ s⁻¹ |
| B8 | – | – | – | – | – | koff [11]: 0.0473 s⁻¹; kon [11]: 2.9e+06 M⁻¹ s⁻¹; EC50 [12]: 0.0341 nM |
